# Reference: US8889130B2, “Treatment of osteoarthritis and pain” (Abbvie Inc., priority 2011, dated 2014)
# What was measured:
# male DBA-1 mice = experiment: Collagen-induced arthritis mouse model (rheumatoid arthritis); assay type: in vivo; settings: therapeutic mode; 1-3 mg/kg intraperitoneally every other day after disease onset
# Procedure: The therapeutic effects of anti-IL-1α, anti-IL-1β, combined anti-IL-1α/anti-IL-1β, and murine IL-1α/β DVD4-Ig, were evaluated in a collagen-induced arthritis mouse model well known in the art. Briefly, male DBA-1 mice were immunized with bovine type II collagen in CFA at the base of the tail. The mice were boosted with Zymosan intraperitoneally (i.p) at day 21. After disease onset at day 24-27, mice were selected and divided into separate groups of 10 mice each. […] To neutralize IL-1, mice were injected every other day with 1-3 mg/kg of anti-IL-1α mAb, anti-IL-1βmAb, combination of anti-IL-1α and anti-IL-1β mAbs, or murine IL-1α/β DVD4-Ig intraperitoneally. Mice were carefully examined three times a week for the visual appearance of arthritis in peripheral joints, and scores for disease activity determined.
# male Swiss Webster mice = experiment: Joint instability model (JIM) of osteoarthritis, cartilage degeneration histology; assay type: in vivo, mouse; settings: Example 3.3.3 (FIG. 4); 21 day study; anti-IL-1β mAb 3, 6, 12 mg/kg; combination 6 mg/kg each
# Procedure: The design of study of the in vivo activity of a mIL-1α/β DVD-Ig molecule in the joint instability model (JIM) of osteoarthritis in mice is shown in Table 19. All groups contained 25 mice (n=25), weighing approximately 30 grams (BW=30 g). The study was terminated after 21 days. Two and a half month old, male Swiss Webster mice (25/group/time point), housed 5/cage, were anesthetized with isoflurane anesthesia. Anterior cruciate ligament (ACL) trauma was administered on the right and left knees on day 0 in an attempt to induce OA lesions. Intraperitoneal (ip) treatments with IL-1 inhibitory antibodies IL-1α (9H10) and IL-1β (10G11), alone and in combination, were initiated the day of ACL trauma and continued every 4th day (q4d) for 20 days. The vehicle for the non-treatment control was PBS. Right and left knees were harvested on day 21, and histopathologic alterations were scored and characterized. Data were analyzed using only joints that had proliferative responses indicative of successful instability induction. The proliferative response/instability was scored 0-3, and only unstable joints (scores of 1, 2, or 3) were used in the final analysis. Medial and lateral femoral and tibial cartilage degeneration was scored for severity of cartilage degeneration on a scale 0-5. Four days after the last antibody dose, blood was drawn from all animals from each group for serum harvest. Body weights were recorded weekly. […]
# Following 2-3 days in a decalcifying fixative (Surgipath Decalifier, Surgipath Medical Ind., Inc., Richmond Va.), both knee joints were trimmed of extraneous tissue, embedded in the frontal plane and sectioned. […] Slides were examined by a board-certified veterinary pathologist blinded to study group designation, and were scored according to the method below. […]
# Medial and lateral femoral and tibial cartilage degeneration were scored for severity of cartilage degeneration using the following system: Depth/extent of chondrocyte and proteoglycan loss with fibrillation: […]
# The design of this study was similar to that described above in Example 3.3.1. […] Body weights were recorded weekly. […]
# mice (female BALB/c) = experiment: Mouse carrageenan-induced inflammatory pain model, thermal hyperalgesia (paw withdrawal latency); assay type: in vivo; settings: Example 8; 48 and 96 hours; single mAb 900 μg; diclofenac 30 mg/kg
# Procedure: To evaluate whether neutralization of IL-1α and IL-1β produces antinociceptive effects in inflammatory pain conditions, anti-IL-1α and anti-IL-1β mAbs were evaluated for the ability to reverse established pain in the mouse carrageenan paw model of nociceptive pain.
# The efficacy of the anti-IL-1α and anti-IL-1β mAbs was evaluated when administered alone or in combination in the mouse carrageenan model (FIG. 15). At 30 hours after intraplantar carrageenan injection: 900 μg of either anti-IL-1α mAb, anti-IL-1β mAb, or their combination were administered in different groups of mice. Thermal hyperalgesia testing was performed 48 and 96 hours after carrageenan. […] The antinociceptive effect in 900 μg combination group was 53±7% at 48 hours, and 82±11% at 96 hours.
# Different groups of animals were treated either with vehicle or a combination of anti-IL-1α and anti-IL-1β mAbs (100, 300, or 900 μg/mouse of each mAb) 30 hours after carrageenan injection. […] The antinociceptive effect in 900 μg treatment group was 70±9% at 48 hours, and 62±4% at 96 hours. Diclofenac (30 mg/kg), a non-steroidal, anti-inflammatory analgesic, was included as positive control in the study, and it increased the mean paw withdrawal latency of the injured paw to 7.01±0.58 s at 48 hours and 7.48±0.34 s at 96 hours when administered p.o. 60 minutes before testing (p<0.01 at both time points).
molecule,measurement,setting,value
"10G11: mouse anti-mouse IL-1β monoclonal antibody (clone 10G11) from IL-1α/β double KO mice (antibody, V domains shown, heavy chain variable domain of 10G11; light chain variable domain of 10G11, mouse anti-mouse IL-1β monoclonal antibody (clone 10G11) from IL-1α/β double KO mice) VH: EVQLQQSGPELVKPGTSVKMSCKTSGYTFTSYVMHWVKQKPGQGLEWIGYIIPYNDNTKYNEKFKGKATLTSDKSSSTAYMELSSLTSEDSAVYYCARRNEYYGSSFFDYWGQGTTLTVSS VL: DIQMTQSPASLSASVGETVTITCRGSGILHNYLVWYQQKQGKSPQLLVYSAKILADGVPSRFSGSGSGTQYSLKINSLQPEDFGSYYCQHFWSTPFTFGSGTKLEIKR",reduction in mean arthritis score compared to control group,male DBA-1 mice,24%
same,preventing cartilage degradation (medial tibial cartilage degeneration scores),male Swiss Webster mice,not effective in preventing cartilage degradation at any dose tested
same,thermal hyperalgesia / antinociceptive effect,mice (female BALB/c),no significant antinociceptive effect
